Experimental data from publication PMC10071043, “Cryo-EM structure of the RuvAB-Holliday junction intermediate complex from Pseudomonas aeruginosa” (Frontiers in Plant Science, 2023).

T1: PaRuvA (Pseudomonas aeruginosa, UniProt Q51425 1-201)
T1 sequence: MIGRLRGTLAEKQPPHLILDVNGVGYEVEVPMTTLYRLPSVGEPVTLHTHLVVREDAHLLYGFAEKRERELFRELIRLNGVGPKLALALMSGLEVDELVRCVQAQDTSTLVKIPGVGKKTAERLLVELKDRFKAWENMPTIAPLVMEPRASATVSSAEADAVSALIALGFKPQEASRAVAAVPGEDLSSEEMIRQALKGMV

B1: Pseudomonas aeruginosa RuvA (natural protein, UniProt Q51425 1-201, looked up)
chain: T1 sequence
notes: cDNA synthesised (GenBank ID 879609); domains D1, D2 and D3; In the cryo-EM complex eight RuvA subunits (two tetramers) sandwich one Holliday junction DNA; GST removed with PreScission protease; also called PaRuvA; source: E. coli Rosetta (DE3), purified (GST Sepharose, Source 15Q, Superdex 200); not shown: GST, N-terminal, cleaved
B2: Pseudomonas aeruginosa RuvB (enzyme, UniProt Q51426 1-352, looked up)
chain: MIEPDRLISAVSGRERDEQLDRAIRPLKLADYIGQPSVREQMELFIHAARGRQEALDHTLIFGPPGLGKTTLANIIAQEMGVSIKSTSGPVLERPGDLAALLTNLEAGDVLFVDEIHRLSPIVEEVLYPAMEDFQLDIMIGEGPAARSIKLDLPPFTLVGATTRAGMLTNPLRDRFGIVQRLEFYNVEDLATIVSRSAGILGLEIEPQGAAEIAKRARGTPRIANRLLRRVRDFAEVRGQGDITRVIADKALNLLDVDERGFDHLDRRLLLTMIDKFDGGPVGIDNLAAALSEERHTIEDVLEPYLIQQGYIMRTPRGRVVTRHAYLHFGLNIPKRLGPGVTTDLFTSEDGN
notes: RuvB, AAA+ ATPase motor protein of Pseudomonas aeruginosa; cDNA synthesised (GenBank ID 882028); domains N, M and C; In the cryo-EM complex eight RuvB subunits form two open rings of four; only one ring is modelled; GST removed with PreScission protease; also called PaRuvB; source: E. coli BL21 (DE3), purified (GST Sepharose, Source 15Q, Superdex 200); not shown: GST, N-terminal, cleaved
B3: HJ2 (HJ2-A/B/C/D) (structured_DNA)
DNA 1: CACTGTGATGCACGATGATAGAACACAGTACTCAGTGCTGCAGTGCTCAGGTGTG
DNA 2: ATACAGATGTAGAGCCAGCACTGAGTACTGTGTTCTATCATCGTGCATCACAGTG
DNA 3: CACTGTGATGGCATGTATCCGAACACAGTACTCAGTGCTGGCTCTACATCTGTAT
DNA 4: CACACCTGAGCACTGCAGCACTGAGTACTGTGTTCGGATACATGCCATCACAGTG

Key:
[1] = target: the molecule itself; test: cryo-EM structure; HJ DNA (HJ2) pre-incubated with RuvA at 4°C for 15 min, then with RuvB for 15 min, RuvA:RuvB:HJ = 8:16:1.2; 50 mM NaCl, 20 mM HEPES pH 7.4, 1 mM ATPγS, 10 mM MgCl2, 1 mM DTT; complex purified on Superose 6
[2] = target: B2; test: as above; conditions: both partners purified
PaRuvA;PaRuvB = PaRuvA;PaRuvB (Pseudomonas aeruginosa;Pseudomonas …, UniProt Q51425;Q51426 1-201;1-352, |); test: cryo-EM; RuvAB-HJ intermediate complex; PDB assigned from residue and nucleotide counts; binding buffer for cryo-EM not given in material; proteins in 20 mM HEPES pH 7.4, 200 mM NaCl, 15 mM reduced glutathione, 1 mM DTT; DNA annealed in 100 mM HEPES pH 7.4, 50 mM NaCl; conditions: protein: recombinant;recombinant; tags: GST tag removed (PreScission);GST tag removed (PreScission); chain copies: 8;8; four-way Holliday junction of 4 strands; A/B and C/D annealed first, then mixed
PaRuvA = target: T1, PaRuvA; test: cryo-EM; RuvA-HJ core region of the RuvAB-HJ complex, 3.0 A; PDB assigned from residue and nucleotide counts; binding buffer for cryo-EM not given in material; proteins in 20 mM HEPES pH 7.4, 200 mM NaCl, 15 mM reduced glutathione, 1 mM DTT; DNA annealed in 100 mM HEPES pH 7.4, 50 mM NaCl; conditions: protein: recombinant; tags: GST tag removed (PreScission); chain copies: 8; four-way Holliday junction of 4 strands; A/B and C/D annealed first, then mixed
PaRuvB = PaRuvB (Pseudomonas aeruginosa, UniProt Q51426 1-352); test: cryo-EM; RuvB ring on one HJ arm duplex in the RuvAB-HJ complex; RuvB1 and RuvB2 contact DNA via C-terminal beta-hairpins, RuvB3 and RuvB4 DNA-free; PDB assigned from residue and nucleotide counts; binding buffer for cryo-EM not given in material; proteins in 20 mM HEPES pH 7.4, 200 mM NaCl, 15 mM reduced glutathione, 1 mM DTT; DNA annealed in 100 mM HEPES pH 7.4, 50 mM NaCl; conditions: protein: recombinant; tags: GST tag removed (PreScission); chain copies: 8; four-way Holliday junction of 4 strands; A/B and C/D annealed first, then mixed

Row | Binder | stoichiometry N [1] | binding result [2] | binding result (PaRuvA;PaRuvB) | binding result (PaRuvA) | binding result (PaRuvB)
1 | B1 | 8 | binds |  |  | 
2 | B2 | 4 |  |  |  | 
3 | B3 |  |  | binds | binds | binds
